Experimental data reported in the supplement of paper PMC9170038.

Test system: K4 kissing-loop RNA reporter
Assay: apparent KD of K4 kissing-loop reporter; higher = weaker reporter binding
Conditions: Eterna round: R107
Experimental: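 RNA-MaP round R107: designed RNA switches with theophylline, tryptophan, arginine or FMN aptamers are transcribed on-chip within common flanks. They are titrated with a labelled K4 kissing-loop RNA reporter in RNA-MaP buffer (100 mM Tris pH 7.5, 80 mM KCl, 4 mM MgCl2), without ligand or with the indicated ligand. Median apparent KD per design.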

[1] = input ligand: theophylline 20 uM
[2] = input ligand: tryptophan 2.4 mM
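Note: bound reporter read as fluorescence of individual clusters on recovered sequencing chips by microscopy, with normalized cluster intensities fitted with a binding model.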

Sequence	apparent KD of K4 kissing-loop reporter (input ligand: FMN 200 uM) [nM]	apparent KD of K4 kissing-loop reporter (input ligand: arginine 13.2 mM) [nM]	apparent KD of K4 kissing-loop reporter (input ligand: none) [nM]	apparent KD of K4 kissing-loop reporter [1] [nM]	apparent KD of K4 kissing-loop reporter [2] [nM]
UAACGGCCCAGUGAUGUUGGGUGGAGGCGGCGAGGACCGGUACGGCCGCCACUCGGCGCACAGGCGGAGUGAUGUUGCGCGUAAA [Same State Tryptophan A GF 13]	242	164	319	182	215
UGUCAUUGGUCUGAUACCAGCUGAUCGGAAACGAUCUUGCUGGAGUGAUGUUCCAAGUAAAGCCCUUGGCAGCAGACCGAUGACU [TheoBS 9 #SwitchBubble #StaticStem]	183	53.8	70.6	107	144
GCGCGUCAUGUCAGCGGUGACACUGUCGAUACCAGUGCCGAAAGGCGCCCUUGGCAGCGACGUGCUGGAGUGAUGUUCCAGCGUU [#2 Exclusion - Theophylline A Attempt #30 (HarryS)]	154	135	151	149	145
AGGACUCUUGUGGGUACGCAUCUAGCCGAUACCAGACUUCCAUAUGUCCCUUGGCAGCGGCAGUGAUGUUGUCGUUACGCCAUCA [theeternabot_exclusion_KL_Theo_A_34]	140	133	147	212	131
UGGGAUGGGCGAGGAUAUGGUGAUGUUUGGGUUGUUAGUGAUGUUGGUGAUGCUGGUGGUGUUUGUCCAGAAGGCGCGGUUUUUU [Bdazzled 3]	154	64.1	119	132	109
UGACUGGAUGGAAGGAGCGCUAAACUCCUAGUGAUGUUAGGGAUACGAGACAAAGUCUUGAGGCAGGUAGGUCGCCAUCUAGUCU [FiskerMod 11 - Jieux - Same State - Arginine B]	162	130	147	157	138
AAAUAAAGCAGUCACCCAGUGAUGUUGGAAGGAGCGUGCGAAAGCACAGGUAGGUCGCCAAAACCUAAUACUGGCUGCUAAAUAA [#03 K4 Arginine A Exclusion]	242	357	285	307	177
GUAUCGCUAGGAGGAUAUUUCGUUUUUCAUAGCAAUGGCUAUGCGGAGUGAUGUUCCGAUUUACCGAAAGAAGGCCUAGUGAUAC [FMN B 25]	95.2	87.8	99.2	103	98.8
AGGUUUUGAUUAGGAUAUGCACUGACGACGAGAAUAUAGUGAUGUUAUAUAAUAGGAAUUAGUAGAGUAGAAGGGAUUGAGGUUU [SSFMNB.W]	261	168	277	342	190
AGAAGAUAUCAAGAUACCAGCUCCCGGCCCAAAACCCAGAUACACGAGUGAUGUUCGUUCAGCCCUUGGCAGCUUGCCUAGUUCU [theeternabot_sameState_KL_Theo_B_6]	94.4	149	125	163	89.4
AGUUCUUGCCGAAGGAGCGAGGCAGAGUGAUGUUCUGCAAGAGGUCGAAAGACCUCUCUGCCUCAGGUAGGUCGCGGCAUGAACA [Omei KL Arginine B Exc A v3]	517	239	483	356	535
AGCGAUGUUUUCUCUAAGAGUGAUGUUUUUCGAGGACCGGUACGGCCGCCACUCGAAUAAAGUGUGUGGUAGUGAGCUGUUGACA [#17 K4 Tryptophan A Exclusion]	1150	606	1110	648	804
UAUAGAGUGACGGCCGCCACUAUUGUGAUUUAAUUGUUAGAGUGAUGUUUUGAUGUUUGAUUUUGUAGGACCGGGUUAUAUGUUA [wwwzmullin]	1090	720	890	795	718
CGCAGUGAUGUUGCUAUUAUUCUUGAUUAACGAGGACCGGUACGGCCGCCACUCGAUUUCUAUCUAAUUUAGUGUUAUGUUGAUU [JR_ExcTryptoA_Sub007]	351	423	397	447	256
CAUAGGAAACUAUGUAUCUCUCUUACUGAAGGAGCGCGUGAAAACGCAGGUAGGUCGCAGAAUUUAAUAGAGAGUGAUGUUCUCU [Ex Arginine A K4 7]	239	202	254	244	208
UGUAUGGACUGAAGGAGCGCUAGGUAUGUGAGUGAUGUUCAUAUAAAUGUAUAAAGGGUUUGGCAGGUAGGUCGCAGUCCAUACU [KL-SSArg B6]	213	122	227	154	188
AGGUAUGUCUGAAGGAGCGACUAAGAAGCAGUGAUGUUGCUAAGUAGUAAGUAGCUACGUAGUCAGGUAGGUCGCAGAUAUACCU [Arg B SS t14]	322	348	257	349	189
UUGGGCAGUGAUGUUGGCUAGGCCACAGAUACCAGACGCAUGCACGUCCCUUGGCAGCUGCGAAAGUUAGACUUGUAAUGAUAGU [theeternabot_sameState_KL_Theo_A_45]	418	181	321	338	217
ACUACGAAGACGGCCGCCACUGAUAUUCGUAGAUCCAUCAUUACAUGAGUGAUGUUCAUGUAUAUCAGGACCGGGUCAAGAUGGU [KL-XTryp-B17 #analogue]	184	146	164	162	226
GCAAAACAAACGUAGAGUGGAACACAGAGACGAGGACCGGUACGGCCGCCACUCGACGAGGUUUUCAGUGAUGUUGAAAAUUUAG [Exclusion Tryptophan A GF2]	133	162	125	151	199
GGGUGGCAGGCGGCCGCCACUCUGAGCACCCACUGAGUGAUGUUCGUGGCGUAAGCCUGUUCGUAGAGGACCGGGUUUGUUGUUC [Exclusion Tryptophan B GF 15]	413	162	300	281	230

Sequence	apparent KD of K4 kissing-loop reporter (input ligand: FMN 200 uM) [nM]	apparent KD of K4 kissing-loop reporter (input ligand: arginine 13.2 mM) [nM]	apparent KD of K4 kissing-loop reporter (input ligand: none) [nM]	apparent KD of K4 kissing-loop reporter [1] [nM]	apparent KD of K4 kissing-loop reporter [2] [nM]
GAUUGAGGAAACUCGAUCUUAUAUCCUAGGCAGGAUAUGCGGAAACGCAGAAGGGCCACCUAGCAGUGAUGUUGCAAGCGAAAGC [Ex FMN A 5]	203	425	379	471	207
GGAGCUACCUGGGAUACCAGUCGGAGUCUCAGAGCUCGGAGUGAUGUUCUGGGAUGUUUCGGCCCUUGGCAGCUCUGGGACUCCU [#2 Exclusion - Theophylline B Attempt #18 (HarryS)]	872	749	864	763	881
UAUCCUCGCUGAAGGAGCGAGCAUGAAGCAGUGAUGUUCCGAGCGAGUGAUGUUCGCAUAGCUCAGGUAGGUCGCAGUGGGAUUU [Same State Arginie B GF 17]	795	749	1030	517	530
CGCGCUGGUUGAGAGGUUGGCGCGAAUGAUACCAGUAUAUAAGAAUACCCUUGGCAGCAUAAGAAAGAUAUAGUGAUGUUGUAUA [SSTheophA.H]	592	344	404	448	370
UGACUGGACUGAAGGAGCGCGCGAGACAAAGUCUCGAACUUCUAGUGAUGUUAGAAAAUAACGCAGGUAGGUCGCAGUCUAGUCU	165	137	152	147	147
UGUGUUUACCUGACCCAGUGAUGUUGGGAAGGAGCGUGCGAAAGCACAGGUAGGUCGCUCAACCUAAAGUCAGGUGAGCACUAAA [#SwitchBubble 9 #K4Early]	407	277	447	470	328
UAUCUUUGCUGAAGGAGCGAGCAUGUUGGAGUGAUGUUCCGUGCGAGUGAUGUUCGCAUAGCUCAGGUAGGUCGCAGUGGGAGGA [KL-SSArg B29]	120	94.7	105	157	86.2
GCGCGUCAUGUUGGCGGGAACUAAGCCGAUACCAGCCGGGAAACCGGCCCUUGGCAGCGGCGCGCCGGAGUGAUGUUCCGACAGA [#2 Exclusion - Theophylline A Attempt #1 (HarryS)]	226	246	254	284	164
CUUGAUCGAGGAAGGAGCGGGCCGUCAUUGAGCGCAGUGAUGUUGCGGUCGACUAGUCGAGCCCAGGUAGGUCGCCUGGAGUAAG [Xeveis]	202	159	173	160	192
AAGUGAUGUUGUAGUGAUGUUGUGAUGUUGCAGGAUAUAUAGUGAUGUAGAAGGGUAUGUUCAGUUUUUUUUUUUGAGUGUUGAU [szxmullin]	84.3	35.3	62.8	47.6	66.5
GGACGACAGGCGGCCGCCACUCAAAGCAGCCAGCGAGUGAUGUUCGUGGCGGAGUGAUGUUCCUAGAGGACCGGGUCUGCAGUUC [Same State Tryptophan B GF 18]	449	390	468	490	362
UCAUGAGAGACGGCCGCCACUGAAGCAGCUCUGUAAGAGCUGCAACAGUAGAGUGAUGUUCUGCGCAGGACCGGGUCGUCAUGAA [KL-SSTryp-B9]	513	206	398	352	450
UGACAUUGCUCAGAUACCAGACCUGAGGAUCACCCAGGUGCCAAAACGUACUAAAUAAAGGUCCCUUGGCAGCUGAGCAAUGUCU [TheoBX 13]	63.6	38.9	27.3	101	65.4
GGAUAGGAUAGAGGAUAUGGUAUAGGCAAGAAUAACUUGUCAUGUAAAUCCAUGAGGAGUGAUGUUCCAGAAGGCUGUCCUAUCG [MatMod 9 - Jieux - Exclusion - FMN B]	620	179	231	168	123
GUACCUUGGAAACAAGGACAGCUCACCGAAGGAGCGCGUGAAAACGCAGGUAGGUCGCGGUAGCGGAGUGAUGUUCCGCGAGGGC [Same State Arginine A GF 20]	114	99.5	100	112	106
GUAUCGCUAGGAGGAUAUUUCAAAUAAUAAAUAAAUGGUUAUACGGAGUGAUGUUCCGAUUUACGGAAAGAAGGCCUAGUGAUAC [FMN B 3]	118	144	155	153	147
GACGGGCAGUGAUGUUGCCGGUCUCUUGGACGAGGACCGGUACGGCCGCCACUCGAUCUGAUGCGGGAAUUGCAUCUUUUAAUAA [Raorbirabe]	237	115	185	194	333
GGAGGAGAGGGAAGGAGCGUGAAAGAGAAAGAAUAUAGUGAUGUUAUAUAGAAGAAAGAAUCACAGGUAGGUCGCCCGGAGGAGG [SSArgB.A]	331	556	684	446	483
GGCAUGGUGACGCGGCUGCCAUGCACUUGGGAGGAUAUGUUUCGUGACAGAAGGCCCAGUGAUGUUGGGUCUGUUCAAAAGGACU [Lerere]	434	135	146	148	119
UGACAUUGCUCAGAUACCAGACAUGAGCAUCAGCCAUGUGCCAAAUACGUACAAAUAAAUGUCCCUUGGCAGCUGAGCAAUGUCU [TheoBX 12]	66.7	30.7	37.5	80	44.4
ACCUUUUUUGCCAGUGAUGUUGGACAGGAAGGAGCGGGCAUAAGCCCAGGUAGGUCGCCUGUCAACUUUCUUAUAGCCCUAAGGU [KL-XArg-A17]	365	270	507	479	349
